Results taken from US20150203577A1 (Chugai, published 2015).
Changes are numbered by the printed parent chain.

T1: mouse FcγRIII (mouse, UniProt P08508 31-215)
T1 construct: Extracellular domain with C-terminal His tag; also called mFcγRIII; mFcgRIII
T1 chain: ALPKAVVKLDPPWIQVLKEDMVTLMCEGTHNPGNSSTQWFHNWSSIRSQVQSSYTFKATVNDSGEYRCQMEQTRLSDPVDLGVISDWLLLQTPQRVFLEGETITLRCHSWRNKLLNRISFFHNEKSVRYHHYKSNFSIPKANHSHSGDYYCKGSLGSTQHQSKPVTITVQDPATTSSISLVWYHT

T2: mouse FcγRII (mouse, UniProt P08101 30-210)
T2 construct: Extracellular domain with C-terminal His tag; also called mFcγRII; mFcgRII
T2 sequence: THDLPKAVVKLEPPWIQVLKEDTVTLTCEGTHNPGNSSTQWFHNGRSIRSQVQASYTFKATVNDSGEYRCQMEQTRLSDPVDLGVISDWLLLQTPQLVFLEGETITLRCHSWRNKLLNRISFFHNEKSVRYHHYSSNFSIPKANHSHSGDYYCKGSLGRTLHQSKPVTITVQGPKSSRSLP

B1: MB774 (antibody, mouse IgG1, kappa)
heavy: QVQLQESGPGLVKPSETLSLTCAVSGHSISHDHAWSWVRQPPGEGLEWIGFISYSGITNYNPSLQGRVTISRDNSKNTLYLQMNSLRAEDTAVYYCARSLARTTAMDYWGEGTLVTVSSAKTTPPSVYPLAPGSAAQTNSMVTLGCLVKGYFPEPVTVTWNSGSLSSGVHTFPAVLQSDLYTLSSSVTVPSSTWPSETVTCNVAHPASSTKVDKKIVPRDCGCKPCICEPNEVELVFIFPPKPKDVLTITLTPKVTCVVVDISKDDPEVQFSWFVDDVEVHTAQTQPREEQFNSTFRSVSELPIMHQDWLNGKEFKCRVNSAAFPAPIVKTISKTKGRPKAPQVYTIPPPKEQMAKDKVSLTCMITDFFPEDITVEWQWNGQPAENYKNTQPIMDTDGSYFVYSKLNVQKSNWEAGNTFTCSVLHEGLHNHHTEKSLSHSPGK
light: not shown
notes: CH name; VH H237 + CH, L chain MRAL-k0; copies: 2 + 2
B2: MB807 (antibody, mouse IgG1, kappa)
heavy: B1 heavy with Q291L, N320M, V329E
light: not shown
notes: as for B1
B3: MB776 (antibody, mouse IgG1, kappa)
heavy: B1 heavy with V329E, T331Y
light: not shown
notes: as for B1
B4: MB783 (antibody, mouse IgG1, kappa)
heavy: B1 heavy with Q291L, A322D, V329E
light: not shown
notes: as for B1
B5: MB784 (antibody, mouse IgG1, kappa)
heavy: B1 heavy with Q291L, V329E, K330R
light: not shown
notes: as for B1
B6: MB791 (antibody, mouse IgG1, kappa)
heavy: B1 heavy with Q291L, N320D, A322D, V329E, K330R
light: not shown
notes: as for B1
B7: MB779 (antibody, mouse IgG1, kappa)
heavy: B1 heavy with V329E, S333W
light: not shown
notes: as for B1
B8: MB788 (antibody, mouse IgG1, kappa)
heavy: B1 heavy with Q291L, N320D, V329E, K330R
light: not shown
notes: as for B1
B9: MB777 (antibody, mouse IgG1, kappa)
heavy: B1 heavy with V329E, S333I
light: not shown
notes: as for B1
B10: MB785 (antibody, mouse IgG1, kappa)
heavy: B1 heavy with N320D, A322D, V329E
light: not shown
notes: as for B1
B11: MB780 (antibody, mouse IgG1, kappa)
heavy: B1 heavy with A323G, V329E
light: not shown
notes: as for B1
B12: MB781 (antibody, mouse IgG1, kappa)
heavy: B1 heavy with A326K, V329E
light: not shown
notes: as for B1
B13: MB790 (antibody, mouse IgG1, kappa)
heavy: B1 heavy with N320D, A322D, V329E, K330R
light: not shown
notes: as for B1
B14: MB787 (antibody, mouse IgG1, kappa)
heavy: B1 heavy with Q291L, N320D, A322D, V329E
light: not shown
notes: as for B1
B15: MB775 (antibody, mouse IgG1, kappa)
heavy: B1 heavy with V329E, T331N
light: not shown
notes: as for B1
B16: MB786 (antibody, mouse IgG1, kappa)
heavy: B1 heavy with A322D, V329E, K330R
light: not shown
notes: as for B1
B17: MB808 (antibody, mouse IgG1, kappa)
heavy: B1 heavy with Q291L, A323G, V329E
light: not shown
notes: as for B1
B18: MB789 (antibody, mouse IgG1, kappa)
heavy: B1 heavy with Q291L, A322D, V329E, K330R
light: not shown
notes: as for B1
B19: MB782 (antibody, mouse IgG1, kappa)
heavy: B1 heavy with Q291L, N320D, V329E
light: not shown
notes: as for B1
B20: MB778 (antibody, mouse IgG1, kappa)
heavy: B1 heavy with V329E, S333K
light: not shown
notes: as for B1

Target: T1, mouse FcγRIII
Experiment: SPR (Biacore T200); KD of H237-mIgG1/MRAL-k0 / KD of variant
Description: (§1) The antibody H chain variable region used was the variable region H237 (SEQ ID NO: 1) of the H chain VH3-IgG1 of the anti-IL-6 receptor antibody Fv4-IgG1 described in WO2009/125825. The antibody L chain commonly used was the L chain MRAL-k0 (SEQ ID NO: 2) of the anti-IL-6 receptor antibody tocilizumab. […] These variants were expressed and purified by the method of Reference Example 1 and evaluated for their binding to mFcγRII and mFcγRIII by the method of Reference Example 2 using Biacore T200.
(§2) Each altered antibody was analyzed for its interaction with each Fcγ receptor prepared above using Biacore T100 (GE Healthcare Japan Corp.), Biacore T200 (GE Healthcare Japan Corp.), Biacore A100, or Biacore 4000. The running buffer used was HBS-EP+ (GE Healthcare Japan Corp.). The assay temperature was set to 25° C. The sensor chips used were chips prepared by immobilizing Protein L (ACTIGEN or BioVision) onto Series S Sensor Chip CM5 (GE Healthcare Japan Corp.) or Series S Sensor Chip CM4 (GE Healthcare Japan Corp.) by the amine coupling method.

| Binder | relative mFcγRIII-binding activity (mIgG1 = 1) [fold] |
| --- | --- |
| B1 | 0.18 |
| B2 | 0.49 |
| B3 | 0.2 |
| B4 | 0.75 |
| B5 | 0.38 |
| B6 | 1.1 |
| B7 | 0.18 |
| B8 | 0.59 |
| B9 | 0.17 |
| B10 | 0.49 |
| B11 | 0.39 |
| B12 | 0.13 |
| B13 | 0.7 |
| B14 | 0.96 |
| B15 | 0.18 |
| B16 | 0.57 |
| B17 | 0.78 |
| B18 | 0.82 |
| B19 | 0.5 |
| B20 | 0.11 |

Target: T2, mouse FcγRII
Experiment: as above
Description: as §1, §2

| Binder | relative mFcγRII-binding activity (mIgG1 = 1) [fold] |
| --- | --- |
| B1 | 9.4 |
| B2 | 21.9 |
| B3 | 11.3 |
| B4 | 30.6 |
| B5 | 14.7 |
| B6 | 40.1 |
| B7 | 10 |
| B8 | 22.4 |
| B9 | 9.7 |
| B10 | 24.9 |
| B11 | 20.2 |
| B12 | 5.2 |
| B13 | 33.5 |
| B14 | 38.5 |
| B15 | 9.1 |
| B16 | 27.2 |
| B17 | 29.2 |
| B18 | 30.9 |
| B19 | 21.3 |
| B20 | 6.1 |

Target: T1, mouse FcγRIII
Experiment: SPR (Biacore T200); KD of H237-MB630/MRAL-k0 / KD of variant
Description: as §1, §2
(§3) In order to calculate the KD value of each altered antibody for FcγR, kinetic analysis was conducted according to the following method: first, the antibody of interest was captured onto any of these chips and allowed to interact with mFcγR diluted with a running buffer. For the obtained sensorgram, the assay results were globally fit into the 1:1 Langmuir binding model using Biacore Evaluation Software to calculate an association rate constant ka (L/mol/s) and a dissociation rate constant kd (1/s). From these values, the dissociation constant KD (mol/L) was calculated.

| Binder | Relative mFcγRIII-binding activity (MB630 = 1) [fold] |
| --- | --- |
| B1 | 1.05 |
| B2 | 2.11 |
| B3 | 1.15 |
| B4 | 4.34 |
| B5 | 2.24 |
| B6 | 6.43 |
| B7 | 1.02 |
| B8 | 3.46 |
| B9 | 0.72 |
| B10 | 2.85 |
| B11 | 2.29 |
| B12 | 0.77 |
| B13 | 4.09 |
| B14 | 5.57 |
| B15 | 1.02 |
| B16 | 3.33 |
| B17 | 3.4 |
| B18 | 4.79 |
| B19 | 2.89 |
| B20 | 0.65 |

Target: T2, mouse FcγRII
Experiment: as above
Description: as §1, §2, §3

| Binder | Relative mFcγRII-binding activity (MB630 = 1) [fold] |
| --- | --- |
| B1 | 0.87 |
| B2 | 1.67 |
| B3 | 1.04 |
| B4 | 2.82 |
| B5 | 1.36 |
| B6 | 3.7 |
| B7 | 0.92 |
| B8 | 2.06 |
| B9 | 0.74 |
| B10 | 2.29 |
| B11 | 1.86 |
| B12 | 0.48 |
| B13 | 3.08 |
| B14 | 3.55 |
| B15 | 0.84 |
| B16 | 2.5 |
| B17 | 2.22 |
| B18 | 2.84 |
| B19 | 1.96 |
| B20 | 0.57 |
